Results on four molecules are retold here after patent US7314709B2, “Compositions and methods for detecting and quantifying COX-2 activity by lipoamino acid metabolism” (Vanderbilt University, priority 2002, dated 2008).

One data set addresses T1, ovine COX-1 (oCOX-1) (Ovis aries, UniProt P05979).
T1 construct: COX-1 was purified from ram seminal vesicles as previously described; tissue Oxford Biomedical Research; host or cells: ram seminal vesicles
T1 sequence (P05979 25-600): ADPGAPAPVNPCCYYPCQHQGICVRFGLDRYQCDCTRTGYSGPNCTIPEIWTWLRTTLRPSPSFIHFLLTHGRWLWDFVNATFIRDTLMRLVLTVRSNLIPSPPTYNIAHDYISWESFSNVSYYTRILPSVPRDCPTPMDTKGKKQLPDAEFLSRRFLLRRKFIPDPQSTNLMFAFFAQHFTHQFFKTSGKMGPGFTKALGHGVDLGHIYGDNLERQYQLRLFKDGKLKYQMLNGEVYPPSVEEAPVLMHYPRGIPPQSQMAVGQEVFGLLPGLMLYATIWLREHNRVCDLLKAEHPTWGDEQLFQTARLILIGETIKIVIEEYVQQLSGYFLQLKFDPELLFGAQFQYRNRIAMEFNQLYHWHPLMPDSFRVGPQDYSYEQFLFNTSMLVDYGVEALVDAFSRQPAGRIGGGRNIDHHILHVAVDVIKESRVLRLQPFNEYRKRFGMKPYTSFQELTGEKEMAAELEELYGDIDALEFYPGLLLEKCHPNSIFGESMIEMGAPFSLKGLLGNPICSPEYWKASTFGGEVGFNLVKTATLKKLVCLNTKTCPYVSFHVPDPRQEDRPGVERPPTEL
Particulars: compared with AA; cited from earlier work.

For data set [1] the following is noted: mice [16,17]; cited from earlier work.
For data set [2] the following is noted: rats [16,17]; cited from earlier work.
Substrate in data set [3]: CCCCC/C=C\C/C=C\C/C=C\C/C=C\CCCCNCC(=O)O
Nature of the data set: Steady-state kinetics of COX-2 mediated oxygenation (oxygraph O2 uptake). Particulars: other: 50 nM COX-2, 100 mM Tris-HCl, 500 μM phenol. The class given is biochemical, murine. On the procedure:
(§1) Enzymology: COX-1 was purified from ram seminal vesicles as previously described. Site-directed mutagenesis of COX-2 was performed as described previously. Recombinant COX-2 enzymes were expressed in Sf-9 insect cells and purified by ion-exchange chromatography and gel filtration as previously described. Apo-enzymes were reconstituted with hematin prior to activity assays. […] COX activity was quantified as previously described. Initial reaction velocity data were obtained from the linear portion of the oxygen uptake curves. Oxygraph data were analyzed by nonlinear regression with Enzyme Kinetics 1.5 software (Trinity Software, Campton, N.H.).

Substrate in data set [4]: CCCCC/C=C\C/C=C\C/C=C\C/C=C\CCCC(=O)O
The data set is described as above. The class given is biochemical, murine. Particulars: other: 50 nM COX-2, 100 mM Tris-HCl, 500 μM phenol. Here is the method:
as §1

Regarding `CCCCC/C=C\C/C=C\C/C=C\C/C=C\CCCC(=O)OC(CO)CO` [2-AG, 2-arachidonlyglycerol], at ovine COX-1 (oCOX-1), the “metabolism by COX-1” value is recorded as “much lesser extent than AA”.
As to `CCCCC/C=C\C/C=C\C/C=C\C/C=C\CCCC(=O)NCCO` [AEA, arachidonyl ethanolamide], the “metabolism by COX-1” value at ovine COX-1 (oCOX-1) is recorded as “much lesser extent than AA”.
Regarding `CCCCC/C=C\C/C=C\C/C=C\C/C=C\CCCC(=O)NCCCC(=O)O` [δ-arachidonyl aminobutuyic acid], the analgesia entry in data set [1] is “induce analgesia”. Also, the “formalin-induced tonic inflammatory pain” value in data set [2] is “suppresses formalin-induced tonic inflammatory pain”.

B1: Murine COX-2 (Mus musculus) (protein)
chain: ANPCCSNPCQNRGECMSTGFDQYKCDCTRTGFYGENCTTPEFLTRIKLLLKPTPNTVHYILTHFKGVWNIVNNIPFLRSLIMKYVLTSRSYLIDSPPTYNVHYGYKSWEAFSNLSYYTRALPPVADDCPTPMGVKGNKELPDSKEVLEKVLLRREFIPDPQGSNMMFAFFAQHFTHQFFKTDHKRGPGFTRGLGHGVDLNHIYGETLDRQHKLRLFKDGKLKYQVIGGEVYPPTVKDTQVEMIYPPHIPENLQFAVGQEVFGLVPGLMMYATIWLREHNRVCDILKQEHPEWGDEQLFQTSRLILIGETIKIVIEDYVQHLSGYHFKLKFDPELLFNQQFQYQNRIASEFNTLYHWHPLLPDTFNIEDQEYSFKQFLYNNSILLEHGLTQFVESFTRQIAGRVAGGRNVPIAVQAVAKASIDQSREMKYQSLNEYRKRFSLKPYTSFEELTGEKEMAAELKALYSDIDVMELYPALLVEKPRPDAIFGETMVELGAPFSLKGLMGNPICSPQYWKPSTFGGEVGFKIINTASIQSLICNNVKGCPFTSFNVQDPQPTKTATINASASHSRLDDINPTVLIKRRSTEL
notes: made in house; host or cells: Sf-9 insect cells
Consider B1, for which, in data set [3], the Km (as a rule, the concentration of substrate that gives half-maximal velocity) is 11.7 ± 1.4 µM; the kcat (commonly the number of substrate molecules converted per active site and unit of time at saturation) was 6.3 ± 1.1 s⁻¹; the kcat/Km – broadly, the second-order rate constant that governs catalysis at low substrate concentration – is 540000 M⁻¹ s⁻¹. Moreover, in data set [4], the Km was 3.3 ± 1.0 µM, the kcat was determined as 16.6 ± 1.7 s⁻¹ and the kcat/Km worked out at 5.08e+06 M⁻¹ s⁻¹.
